The values below come from patent publication US20160199445A1, “USE OF ARPIN A NEW INHIBITOR OF THE ARP2/3 COMPLEX FOR THE DIAGNOSIS AND TREATMENT OF DISEASES” (CENTRE NATIONAL DE LA RECHERCHE SCIENTIFIQUE, priority 2013, published 2016).

Usually Kd stands for the constant that tells how readily two partners part at equilibrium. A lower Kd goes with a tighter complex.

The target of the assay is Purified Arp2/3 complex. Put plainly: fluorescence anisotropy, labelled ArpinA peptide titrated with purified Arp2/3 complex. On the technique in general: Polarisation of emitted light reports the rotation of a fluorescent probe.

No end group written: not given here. *: point of attachment. 5‑TAMRA = 5-carboxytetramethylrhodamine label, CN(C)c1ccc2c(-c3ccc(C(=O)*)cc3C(=O)[O-])c3ccc(=[N+](C)C)cc-3oc2c1

{5‑TAMRA}-EIREQGDGAEDEEWDD [ArpinA peptide labelled with 5-TAMRA at the N-terminus] displayed a Kd of 384 nM.
